From patent US20110263454A1, “Methods of Identifying Functional Characteristics of Promoters, Transcription Modifying Proteins and Transcription Modulating Agents” (Salk Institute for Biological Studies, priority 2008, published 2011)

How the values were obtained:
mCAR promoter = experiment: NHR-promoter luciferase screen, mCAR promoter; assay type: cell-based, mouse; details: for luciferase activity normalized to lacZ activity and to a control, mCAR: mCAR promoter-luciferase, CV-1 cells, NHR +/- ligand, control = 1.00; for Luc. act., normalized to lacZ / Normalized Luc. act., normalized to control: mCAR promoter, HR/ligand component
Summary of the method: (§1)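 CV-1 cells were co-transfected with 50 ng NHR (homodimer or NHR/RXR heterodimer), 100 ng promoter-luciferase construct and 50 ng LacZ. Luciferase was normalized to LacZ and to a no-NHR/no-ligand control.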

hG6PD promoter = experiment: NHR-promoter luciferase screen, hG6PD promoter; assay type: cell-based, human; details: for Luc. act., normalized to lacZ / Normalized Luc. act., normalized to control: G6PD promoter reporter, co-transfected HR, without or with its ligand; for Normalized Luc. act., normalized to control: relative to control; for luciferase activity normalized to lacZ activity and to a control, hG6PD: hG6PD promoter-luciferase, CV-1 cells, NHR +/- ligand, control = 1.00
Summary of the method: as §1

Bmal1 promoter = experiment: NHR-promoter luciferase screen, Bmal1 promoter; assay type: cell-based, mouse; details: for Luc. act., normalized to lacZ / Normalized Luc. act., normalized to control: Bmal1 promoter, HR component without or with ligand; for mBmal1 promoter reporter activity: transcription factor +/- ligand, control = 1.00
Summary of the method: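 CV-1 cells co-transfected with 50 ng NHR (V5H6-tagged, pcDNA3.1; homodimer or RXR heterodimer), 100 ng Bmal1 promoter-luciferase and 50 ng LacZ. Luciferase was normalized to LacZ and to a no-NHR/ligand control.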

RevErba promoter = experiment: NHR-promoter luciferase screen, RevErba (RVRa) promoter; assay type: cell-based; set-up: key to mRevErba promoter reporter activity / Normalized Luc. act., normalized to control: luciferase activity normalized to lacZ and to control (no NHR/ligand); details: for Luc. act., normalized to lacZ / Normalized Luc. act., normalized to control / negative reciprocal of normalized Luc. act. (fold repression; Table 33) / normalized Luc. act. on a logarithmic scale (column without head, Table 33): RVRa promoter; for Luc. act., normalized to lacZ / Normalized Luc. act., normalized to control: HR component without or with ligand; for negative reciprocal of normalized Luc. act. (fold repression; Table 33): given only where activity is below control; for normalized Luc. act. on a logarithmic scale (column without head, Table 33): log10 of activity normalized to control; for mRevErba promoter reporter activity: transcription factor +/- ligand, control = 1.00
Summary of the method: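 CV-1 cells co-transfected with NHR (pcDNA3.1, C-terminal V5H6 tag) as homodimer or RXR heterodimer, RevErbα promoter–luciferase reporter and LacZ transfection control; ligand added where applicable. Luciferase normalized to LacZ and to no-NHR/no-ligand control.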

mABCA1 promoter = experiment: NHR-promoter luciferase screen, mABCA1 promoter; assay type: cell-based, mouse; details: for Luc. act., normalized to lacZ / Normalized Luc. act., normalized to control: ABCA1 promoter, hormone receptor with or without its ligand; for Normalized Luc. act., normalized to control: relative to control; for mABCA1 promoter reporter activity: transcription factor +/- ligand, control = 1.00
Summary of the method: as §1

Molecule	luciferase activity normalized to lacZ activity and to a control, mCAR (mCAR promoter)	Luc. act., normalized to lacZ (mCAR promoter)	Normalized Luc. act., normalized to control (mCAR promoter)	Luc. act., normalized to lacZ (hG6PD promoter)	Normalized Luc. act., normalized to control (hG6PD promoter)	luciferase activity normalized to lacZ activity and to a control, hG6PD (hG6PD promoter)	Luc. act., normalized to lacZ (Bmal1 promoter)	Normalized Luc. act., normalized to control (Bmal1 promoter)	mBmal1 promoter reporter activity (Bmal1 promoter)	Luc. act., normalized to lacZ (RevErba promoter)	Normalized Luc. act., normalized to control (RevErba promoter)	negative reciprocal of normalized Luc. act. (fold repression; Table 33) (RevErba promoter)	normalized Luc. act. on a logarithmic scale (column without head, Table 33) (RevErba promoter)	mRevErba promoter reporter activity (RevErba promoter)	Luc. act., normalized to lacZ (mABCA1 promoter)	Normalized Luc. act., normalized to control (mABCA1 promoter)	mABCA1 promoter reporter activity (mABCA1 promoter)
NR4a2: NR4a2 (NR4A2; NURR1), nuclear hormone receptor cDNA driver (protein, UniProt P43354 1-598, looked up) Nuclear receptor subfamily 4 …: MPCVQAQYGSSPQGASPASQSYSYHSSGEYSSDFLTPEFVKFSMDLTNTEITATTSLPSFSTFMDNYSTGYDVKPPCLYQMPLSGQQSSIKVEDIQMHNYQQHSHLPPQSEEMMPHSGSVYYKPSSPPTPTTPGFQVQHSPMWDDPGSLHNFHQNYVATTHMIEQRKTPVSRLSLFSFKQSPPGTPVSSCQMRFDGPLHVPMNPEPAGSHHVVDGQTFAVPNPIRKPASMGFPGLQIGHASQLLDTQVPSPPSRGSPSNEGLCAVCGDNAACQHYGVRTCEGCKGFFKRTVQKNAKYVCLANKNCPVDKRRRNRCQYCRFQKCLAVGMVKEVVRTDSLKGRRGRLPSKPKSPQEPSPPSPPVSLISALVRAHVDSNPAMTSLDYSRFQANPDYQMSGDDTQHIQQFYDLLTGSMEIIRGWAEKIPGFADLPKADQDLLFESAFLELFVLRLAYRSNPVEGKLIFCNGVVLHRLQCVRGFGEWIDSIVEFSSNLQNMNIDISAFSCIAALAMVTERHGLKEPKRVEELQNKIVNCLKDHVTFNNGGLNRPNYLSKLLGKLPELRTLCTQGLQRIFYLKLEDLVPPPAIIDKLFLDTLPF	0.57	21.74	0.6	41.1	1.1	1.10	8.1	0.5	0.52	20.6	0.7	−1.357	−0.13	0.74	6.2	1.1	1.11
hMR: Mineralocorticoid Receptor (NR3C2, MR), cDNA driver (protein, UniProt P08235 1-984, looked up) Mineralocorticoid receptor: METKGYHSLPEGLDMERRWGQVSQAVERSSLGPTERTDENNYMEIVNVSCVSGAIPNNSTQGSSKEKQELLPCLQQDNNRPGILTSDIKTELESKELSATVAESMGLYMDSVRDADYSYEQQNQQGSMSPAKIYQNVEQLVKFYKGNGHRPSTLSCVNTPLRSFMSDSGSSVNGGVMRAVVKSPIMCHEKSPSVCSPLNMTSSVCSPAGINSVSSTTASFGSFPVHSPITQGTPLTCSPNVENRGSRSHSPAHASNVGSPLSSPLSSMKSSISSPPSHCSVKSPVSSPNNVTLRSSVSSPANINNSRCSVSSPSNTNNRSTLSSPAASTVGSICSPVNNAFSYTASGTSAGSSTLRDVVPSPDTQEKGAQEVPFPKTEEVESAISNGVTGQLNIVQYIKPEPDGAFSSSCLGGNSKINSDSSFSVPIKQESTKHSCSGTSFKGNPTVNPFPFMDGSYFSFMDDKDYYSLSGILGPPVPGFDGNCEGSGFPVGIKQEPDDGSYYPEASIPSSAIVGVNSGGQSFHYRIGAQGTISLSRSARDQSFQHLSSFPPVNTLVESWKSHGDLSSRRSDGYPVLEYIPENVSSSTLRSVSTGSSRPSKICLVCGDEASGCHYGVVTCGSCKVFFKRAVEGQHNYLCAGRNDCIIDKIRRKNCPACRLQKCLQAGMNLGARKSKKLGKLKGIHEEQPQQQQPPPPPPPPQSPEEGTTYIAPAKEPSVNTALVPQLSTISRALTPSPVMVLENIEPEIVYAGYDSSKPDTAENLLSTLNRLAGKQMIQVVKWAKVLPGFKNLPLEDQITLIQYSWMCLSSFALSWRSYKHTNSQFLYFAPDLVFNEEKMHQSAMYELCQGMHQISLQFVRLQLTFEEYTIMKVLLLLSTIPKDGLKSQAAFEEMRTNYIKELRKMVTKCPNNSGQSWQRFYQLTKLLDSMHDLVSDLLEFCFYTFRESHALKVEFPAMLVEIISDQLPKVESGNAKPLYFHRK	0.77	29.38	0.8	35.2	0.9	0.94	18.2	1.2	1.17	13.7	0.5	−2.036	−0.31	0.49	6.8	1.2	1.21
PR: Progesterone Receptor (NR3C3), cDNA driver (protein, UniProt P06401 1-933, looked up) Progesterone receptor: MTELKAKGPRAPHVAGGPPSPEVGSPLLCRPAAGPFPGSQTSDTLPEVSAIPISLDGLLFPRPCQGQDPSDEKTQDQQSLSDVEGAYSRAEATRGAGGSSSSPPEKDSGLLDSVLDTLLAPSGPGQSQPSPPACEVTSSWCLFGPELPEDPPAAPATQRVLSPLMSRSGCKVGDSSGTAAAHKVLPRGLSPARQLLLPASESPHWSGAPVKPSPQAAAVEVEEEDGSESEESAGPLLKGKPRALGGAAAGGGAAAVPPGAAAGGVALVPKEDSRFSAPRVALVEQDAPMAPGRSPLATTVMDFIHVPILPLNHALLAARTRQLLEDESYDGGAGAASAFAPPRSSPCASSTPVAVGDFPDCAYPPDAEPKDDAYPLYSDFQPPALKIKEEEEGAEASARSPRSYLVAGANPAAFPDFPLGPPPPLPPRATPSRPGEAAVTAAPASASVSSASSSGSTLECILYKAEGAPPQQGPFAPPPCKAPGASGCLLPRDGLPSTSASAAAAGAAPALYPALGLNGLPQLGYQAAVLKEGLPQVYPPYLNYLRPDSEASQSPQYSFESLPQKICLICGDEASGCHYGVLTCGSCKVFFKRAMEGQHNYLCAGRNDCIVDKIRRKNCPACRLRKCCQAGMVLGGRKFKKFNKVRVVRALDAVALPQPVGVPNESQALSQRFTFSPGQDIQLIPPLINLLMSIEPDVIYAGHDNTKPDTSSSLLTSLNQLGERQLLSVVKWSKSLPGFRNLHIDDQITLIQYSWMSLMVFGLGWRSYKHVSGQMLYFAPDLILNEQRMKESSFYSLCLTMWQIPQEFVKLQVSQEEFLCMKVLLLLNTIPLEGLRSQTQFEEMRSSYIRELIKAIGLRQKGVVSSSQRFYQLTKLLDNLHDLVKQLHLYCLNTFIQSRALSVEFPEMMSEVIAAQLPKILAGMVKPLLFHKK	0.98	37.53	1.0	45.4	1.2	1.22	17.9	1.1	1.14	24.1	0.9	−1.16	−0.06	0.86	8.9	1.6	1.58
